The values that follow are results of earlier work, collected in paper PMC6005205.

By Kd is commonly meant the constant that tells how readily two partners part at equilibrium.

This data set addresses ACKR3 (Homo sapiens) (UniProt P25106).
Sequence of UniProt P25106 (P25106 whole entry): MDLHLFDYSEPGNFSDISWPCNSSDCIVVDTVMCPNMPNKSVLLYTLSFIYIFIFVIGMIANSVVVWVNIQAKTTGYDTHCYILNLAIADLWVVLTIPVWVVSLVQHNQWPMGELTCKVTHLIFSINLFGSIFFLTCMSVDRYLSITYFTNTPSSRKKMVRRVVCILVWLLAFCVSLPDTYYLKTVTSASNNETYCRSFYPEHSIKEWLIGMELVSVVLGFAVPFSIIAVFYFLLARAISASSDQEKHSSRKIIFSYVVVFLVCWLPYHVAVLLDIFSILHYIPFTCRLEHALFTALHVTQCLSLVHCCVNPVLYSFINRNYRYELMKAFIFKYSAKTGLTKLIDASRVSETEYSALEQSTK

Turning to adrenomedullin (from UniProt P35318), the Kd was 0.2 nM.
